How the values were obtained:
Assay in all cases: ELISA, IgG:IgE hexamers on receptor-GST
[1] = molecular target: T1, human FcγRIIB α subunit extracellular domain-6His-GST fusion (human, UniProt P31994 43-217)
T1 construct: not shown: glutathione S-transferase (GST)
T1 sequence: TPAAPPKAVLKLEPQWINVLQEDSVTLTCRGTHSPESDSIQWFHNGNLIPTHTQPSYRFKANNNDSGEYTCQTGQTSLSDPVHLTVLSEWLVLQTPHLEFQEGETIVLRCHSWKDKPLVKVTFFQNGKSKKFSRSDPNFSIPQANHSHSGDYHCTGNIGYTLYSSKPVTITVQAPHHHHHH

[2] = molecular target: T2, human FcγRIIIA-F158 α subunit extracellular domain-6His-GST fusion (human, UniProt P08637 17-208)
T2 construct: also called FcγRIIIA-Phe158; not shown: glutathione S-transferase (GST)
T2 sequence (P08637 other isoform, or with tags, fused parts or gaps, form in doubt): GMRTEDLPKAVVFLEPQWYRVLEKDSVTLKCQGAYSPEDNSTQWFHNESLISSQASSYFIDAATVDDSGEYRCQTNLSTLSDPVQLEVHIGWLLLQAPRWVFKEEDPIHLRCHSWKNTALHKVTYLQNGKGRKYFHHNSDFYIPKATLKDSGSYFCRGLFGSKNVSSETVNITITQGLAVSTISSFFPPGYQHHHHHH

[3] = molecular target: T3, human FcγRIIA-R131 α subunit extracellular domain-6His-GST fusion (human, UniProt P12318 34-217)
T3 construct: also called FcγRIIA-Arg131; not shown: glutathione S-transferase (GST)
T3 sequence: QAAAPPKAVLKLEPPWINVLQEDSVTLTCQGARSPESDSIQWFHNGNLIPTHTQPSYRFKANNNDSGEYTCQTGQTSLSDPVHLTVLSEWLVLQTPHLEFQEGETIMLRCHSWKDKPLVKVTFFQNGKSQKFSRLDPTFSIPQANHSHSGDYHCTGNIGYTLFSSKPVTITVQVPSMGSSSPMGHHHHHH

Binder | ratio to native IgG1 [1] | ratio to native IgG1 [2] | ratio to native IgG1 [3]
E27 IgG1 variant K334(353)R (antibody) heavy: not shown light: DIQLTQSPSSLSASVGDRVTITCRASKPVDGEGDSYLNWYQQKPGKAPKLLIYAASYLESGVPSRFSGSGSGTDFTLTISSLQPEDFATYYCQQSHEDPYTFGQGTKVEIKRTVAAPSVFIFPPSDEQLKSGTASVVCLLNNFYPREAKVQWKVDNALQSGNSQESVTEQDSKDSTYSLSSTLTLSKADYEKHKVYACEVTHQGLSSPVTKSFNRGEC | 1.33 | 0.68 | 1.15
E27 IgG1 variant N286(303)Q (antibody, also called IG2 23) heavy: not shown light: DIQLTQSPSSLSASVGDRVTITCRASKPVDGEGDSYLNWYQQKPGKAPKLLIYAASYLESGVPSRFSGSGSGTDFTLTISSLQPEDFATYYCQQSHEDPYTFGQGTKVEIKRTVAAPSVFIFPPSDEQLKSGTASVVCLLNNFYPREAKVQWKVDNALQSGNSQESVTEQDSKDSTYSLSSTLTLSKADYEKHKVYACEVTHQGLSSPVTKSFNRGEC | 1.13 | 0.96 | 1.52
E27 IgG1 variant N276(289)K (antibody) heavy: not shown light: DIQLTQSPSSLSASVGDRVTITCRASKPVDGEGDSYLNWYQQKPGKAPKLLIYAASYLESGVPSRFSGSGSGTDFTLTISSLQPEDFATYYCQQSHEDPYTFGQGTKVEIKRTVAAPSVFIFPPSDEQLKSGTASVVCLLNNFYPREAKVQWKVDNALQSGNSQESVTEQDSKDSTYSLSSTLTLSKADYEKHKVYACEVTHQGLSSPVTKSFNRGEC | 0.77 | 0.61 | 0.81
E27 IgG1 variant N286(303)D (antibody, also called IG2 238) heavy: not shown light: DIQLTQSPSSLSASVGDRVTITCRASKPVDGEGDSYLNWYQQKPGKAPKLLIYAASYLESGVPSRFSGSGSGTDFTLTISSLQPEDFATYYCQQSHEDPYTFGQGTKVEIKRTVAAPSVFIFPPSDEQLKSGTASVVCLLNNFYPREAKVQWKVDNALQSGNSQESVTEQDSKDSTYSLSSTLTLSKADYEKHKVYACEVTHQGLSSPVTKSFNRGEC | 1.23 | 0.98 | 1.41
E27 IgG1 variant K338(358)M (antibody) heavy: not shown light: DIQLTQSPSSLSASVGDRVTITCRASKPVDGEGDSYLNWYQQKPGKAPKLLIYAASYLESGVPSRFSGSGSGTDFTLTISSLQPEDFATYYCQQSHEDPYTFGQGTKVEIKRTVAAPSVFIFPPSDEQLKSGTASVVCLLNNFYPREAKVQWKVDNALQSGNSQESVTEQDSKDSTYSLSSTLTLSKADYEKHKVYACEVTHQGLSSPVTKSFNRGEC | 0.93 | 0.49 | 0.99
E27 IgG1 variant P331(350)E (antibody, also called IG2 200) heavy: not shown light: DIQLTQSPSSLSASVGDRVTITCRASKPVDGEGDSYLNWYQQKPGKAPKLLIYAASYLESGVPSRFSGSGSGTDFTLTISSLQPEDFATYYCQQSHEDPYTFGQGTKVEIKRTVAAPSVFIFPPSDEQLKSGTASVVCLLNNFYPREAKVQWKVDNALQSGNSQESVTEQDSKDSTYSLSSTLTLSKADYEKHKVYACEVTHQGLSSPVTKSFNRGEC | 0.91 | 0.42 | 1.06
E27 IgG1 variant K334(353)V (antibody, also called IG2 220) heavy: not shown light: DIQLTQSPSSLSASVGDRVTITCRASKPVDGEGDSYLNWYQQKPGKAPKLLIYAASYLESGVPSRFSGSGSGTDFTLTISSLQPEDFATYYCQQSHEDPYTFGQGTKVEIKRTVAAPSVFIFPPSDEQLKSGTASVVCLLNNFYPREAKVQWKVDNALQSGNSQESVTEQDSKDSTYSLSSTLTLSKADYEKHKVYACEVTHQGLSSPVTKSFNRGEC | 1.09 | 1.34 | 1.13
E27 IgG1 variant N286(303)S (antibody, also called IG2 237) heavy: not shown light: DIQLTQSPSSLSASVGDRVTITCRASKPVDGEGDSYLNWYQQKPGKAPKLLIYAASYLESGVPSRFSGSGSGTDFTLTISSLQPEDFATYYCQQSHEDPYTFGQGTKVEIKRTVAAPSVFIFPPSDEQLKSGTASVVCLLNNFYPREAKVQWKVDNALQSGNSQESVTEQDSKDSTYSLSSTLTLSKADYEKHKVYACEVTHQGLSSPVTKSFNRGEC | 1.38 | 1.32 | 1.72
E27 IgG1 variant N276(289)Q (antibody, also called IG2 233) heavy: not shown light: DIQLTQSPSSLSASVGDRVTITCRASKPVDGEGDSYLNWYQQKPGKAPKLLIYAASYLESGVPSRFSGSGSGTDFTLTISSLQPEDFATYYCQQSHEDPYTFGQGTKVEIKRTVAAPSVFIFPPSDEQLKSGTASVVCLLNNFYPREAKVQWKVDNALQSGNSQESVTEQDSKDSTYSLSSTLTLSKADYEKHKVYACEVTHQGLSSPVTKSFNRGEC | 0.79 | 0.91 | 1.09
E27 IgG1 variant K334(353)S (antibody) heavy: not shown light: DIQLTQSPSSLSASVGDRVTITCRASKPVDGEGDSYLNWYQQKPGKAPKLLIYAASYLESGVPSRFSGSGSGTDFTLTISSLQPEDFATYYCQQSHEDPYTFGQGTKVEIKRTVAAPSVFIFPPSDEQLKSGTASVVCLLNNFYPREAKVQWKVDNALQSGNSQESVTEQDSKDSTYSLSSTLTLSKADYEKHKVYACEVTHQGLSSPVTKSFNRGEC | 1.03 | 1.19 | 1.01

The remaining lines, values ahead:

ratio to native IgG1 [1] | ratio to native IgG1 [2] | ratio to native IgG1 [3] | Binder
0.71 | 0.33 | 0.94 | E27 IgG1 variant P331(350)K (antibody) heavy: not shown light: DIQLTQSPSSLSASVGDRVTITCRASKPVDGEGDSYLNWYQQKPGKAPKLLIYAASYLESGVPSRFSGSGSGTDFTLTISSLQPEDFATYYCQQSHEDPYTFGQGTKVEIKRTVAAPSVFIFPPSDEQLKSGTASVVCLLNNFYPREAKVQWKVDNALQSGNSQESVTEQDSKDSTYSLSSTLTLSKADYEKHKVYACEVTHQGLSSPVTKSFNRGEC
0.25 | 0.45 | 0.47 | E27 IgG1 variant R292(309)Q (antibody, also called IG2 82) heavy: not shown light: DIQLTQSPSSLSASVGDRVTITCRASKPVDGEGDSYLNWYQQKPGKAPKLLIYAASYLESGVPSRFSGSGSGTDFTLTISSLQPEDFATYYCQQSHEDPYTFGQGTKVEIKRTVAAPSVFIFPPSDEQLKSGTASVVCLLNNFYPREAKVQWKVDNALQSGNSQESVTEQDSKDSTYSLSSTLTLSKADYEKHKVYACEVTHQGLSSPVTKSFNRGEC
0.12 | 0.92 | 0.21 | E27 IgG1 variant R292(309)H (antibody, also called IG2 81) heavy: not shown light: DIQLTQSPSSLSASVGDRVTITCRASKPVDGEGDSYLNWYQQKPGKAPKLLIYAASYLESGVPSRFSGSGSGTDFTLTISSLQPEDFATYYCQQSHEDPYTFGQGTKVEIKRTVAAPSVFIFPPSDEQLKSGTASVVCLLNNFYPREAKVQWKVDNALQSGNSQESVTEQDSKDSTYSLSSTLTLSKADYEKHKVYACEVTHQGLSSPVTKSFNRGEC
0.65 | 0.23 | 0.86 | E27 IgG1 variant P331(350)N (antibody, also called IG2 199) heavy: not shown light: DIQLTQSPSSLSASVGDRVTITCRASKPVDGEGDSYLNWYQQKPGKAPKLLIYAASYLESGVPSRFSGSGSGTDFTLTISSLQPEDFATYYCQQSHEDPYTFGQGTKVEIKRTVAAPSVFIFPPSDEQLKSGTASVVCLLNNFYPREAKVQWKVDNALQSGNSQESVTEQDSKDSTYSLSSTLTLSKADYEKHKVYACEVTHQGLSSPVTKSFNRGEC
1.56 | 0.48 | 1.29 | E27 IgG1 variant R301(320)M (antibody) heavy: not shown light: DIQLTQSPSSLSASVGDRVTITCRASKPVDGEGDSYLNWYQQKPGKAPKLLIYAASYLESGVPSRFSGSGSGTDFTLTISSLQPEDFATYYCQQSHEDPYTFGQGTKVEIKRTVAAPSVFIFPPSDEQLKSGTASVVCLLNNFYPREAKVQWKVDNALQSGNSQESVTEQDSKDSTYSLSSTLTLSKADYEKHKVYACEVTHQGLSSPVTKSFNRGEC
0.75 | 1.15 | 0.71 | E27 IgG1 variant R292(309)K (antibody, also called IG2 80) heavy: not shown light: DIQLTQSPSSLSASVGDRVTITCRASKPVDGEGDSYLNWYQQKPGKAPKLLIYAASYLESGVPSRFSGSGSGTDFTLTISSLQPEDFATYYCQQSHEDPYTFGQGTKVEIKRTVAAPSVFIFPPSDEQLKSGTASVVCLLNNFYPREAKVQWKVDNALQSGNSQESVTEQDSKDSTYSLSSTLTLSKADYEKHKVYACEVTHQGLSSPVTKSFNRGEC
0.29 | 0.88 | 0.54 | E27 IgG1 variant R292(309)N (antibody, also called IG2 83) heavy: not shown light: DIQLTQSPSSLSASVGDRVTITCRASKPVDGEGDSYLNWYQQKPGKAPKLLIYAASYLESGVPSRFSGSGSGTDFTLTISSLQPEDFATYYCQQSHEDPYTFGQGTKVEIKRTVAAPSVFIFPPSDEQLKSGTASVVCLLNNFYPREAKVQWKVDNALQSGNSQESVTEQDSKDSTYSLSSTLTLSKADYEKHKVYACEVTHQGLSSPVTKSFNRGEC
0.78 | 0.58 | 0.91 | E27 IgG1 variant P331(350)S (antibody, also called IG2 198) heavy: not shown light: DIQLTQSPSSLSASVGDRVTITCRASKPVDGEGDSYLNWYQQKPGKAPKLLIYAASYLESGVPSRFSGSGSGTDFTLTISSLQPEDFATYYCQQSHEDPYTFGQGTKVEIKRTVAAPSVFIFPPSDEQLKSGTASVVCLLNNFYPREAKVQWKVDNALQSGNSQESVTEQDSKDSTYSLSSTLTLSKADYEKHKVYACEVTHQGLSSPVTKSFNRGEC
